Drawing on US11077130, this text covers fold increase in IC50 (neutralization, mutant vs wild type), percent blocked and quantity not named (value printed after the antibody's name) for two substances.

One test has as its target B.RHPA Env N160K (HIV-1). The test is described as follows: cell-based or functional assay.
The target in a further test is B.RHPA Env N276A (HIV-1). The test is described as follows: cell-based or functional assay.
The target in a further test is B.RHPA Env T278A (HIV-1). The experiment in a line: cell-based or functional assay.
Test [1] concerns the target B.RHPA Env T278A R456W (HIV-1). The test is described as follows: cell-based or functional assay.
Test [2] has as its target HIV-1 Env (strain and construct not stated). The experiment in a line: SPR; antibody-Env mixture flowed over immobilized HJ16 (competitor: immobilized HJ16).
The target in the next test is B.6240 gp120 (HIV-1). The test is described as follows: not stated (binding of B.6420 gp120 to mAbs).

Turning to HJ16 (antibody), the fold increase in IC50 (neutralization, mutant vs wild type) in the test with B.RHPA Env N160K (HIV-1) is 0.5 fold; with B.RHPA Env N276A (HIV-1), above 10 fold; with B.RHPA Env T278A (HIV-1), above 10 fold; in test [1] it was above 1000 fold. For the same substance, the percent blocked in test [2] was found to be 96%.

The substance PG9 (antibody) showed a quantity not named (value printed after the antibody's name) with B.6240 gp120 (HIV-1) of 32.1 nM.
